In the supplement of paper PMC9170038:

System: MS2 coat protein
Test: apparent KD of MS2 coat protein; designed switch direction (-1 OFF switch, 1 ON switch): -1; higher = weaker reporter binding
Summary of the method: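 For each design, the apparent KD is the median over clusters of curves fitted to normalised cluster fluorescence. Clusters held RNA switches with common flanks, transcribed on Illumina chips by stalled E. coli RNA polymerase. These were titrated with SNAP-549-labelled MS2 coat protein, doubling from 0.7 or 1.5 nM to 3 µM, without input, with 200 uM small-molecule ligand, or with an oligonucleotide input.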

[1] = Eterna round: R95, input ligand: FMN 200 uM
[2] = Eterna round: R95, input ligand: microRNA oligo, concentration not stated
[3] = Eterna round: R95, input ligand: none
[4] = input ligand: microRNA oligo, concentration not stated

Sequence | apparent KD of MS2 coat protein (input ligand: FMN 200 uM) [nM] | apparent KD of MS2 coat protein (input ligand: none) [nM] | apparent KD of MS2 coat protein [1] [nM] | apparent KD of MS2 coat protein [2] [nM] | apparent KD of MS2 coat protein [3] [nM] | apparent KD of MS2 coat protein [4] [nM]
AAAAGGUGAGGAUAUCCGACGUUGCACUUGAGGAUCACCCAAGUUCCUCGCGUGCUUUUAGGAGAAGGCACAAAAC [Tegezaza] (Eterna round: R97, puzzle: Exclusion 5) | 77.3 | 982 | – | – | – | –
CUGAGCAGACGGAGAUCCAACAUGAGGAUCACCCAUGUCUCAAAAGCUUUCUGCUCGUCUUAUCCUCCUCUGUUCUC [Engeonrati] (puzzle: Sensor v3, turn-off variant 1) | – | – | 129 | 205 | 151 | –
GUCAGACGAGGAUAUAAAUUUGAUAACAUGAGGAUCACCCAUGUGAUCGAUAGAUCAAAUUUAGAAGGUGUCUGAC [E5/7-B3] (Eterna round: R97, puzzle: Exclusion 5) | 487 | 501 | – | – | – | –
UCGUGUAUAGAGGAUAUAUUAUUUUUUAAAACAAUAGAAGGCUAAACAUGAGGAUCACCCAUGUAUUUGGUUUU [JR_Ex6_Sub053] (Eterna round: R97, puzzle: Exclusion 6) | 82.1 | 19.6 | – | – | – | –
UAAACAAGCUAAAGAUCCUACAUGAGGAUCACCCAUGUGCUCGUCUUAUAAGGUACUGUGACGAAAGUCACGGUACC [JL TOV1 3.00] (Eterna round: R97, puzzle: Sensor, turn-off variant 1) | 488 | 663 | – | – | – | –
GAUUAUGCGAGCUUUAGGGACAUGAGGAUCACCCAUGUUCGUCUUAUUGAUCUAGGUACACUGACAUACCUAAAUCU [JMF 66] (puzzle: Sensor v3, turn-off variant 1) | – | – | 23.7 | 39.9 | 24.5 | –
AUUUAGAGAGGAUAUAUAUUGUGAAACAUGAGGAUCACCCAUGUAAUAAUAUGGAUGUAAAUAGAAGGCUCAUUUA [Mat - Exclusion 5 - JL mod - D9] (puzzle: Exclusion 5) | – | – | – | 41.3 | – | –
GGGAAGGGAGGAUAUGAGGAGGAGAACAUGAGGAUCACCCAUGUGAGGCCUCAGGAUCAAUCAGAAGGCCCGAUCC [AK-MS2ROC-r4-exclusion5-15.1] (Eterna round: R97, puzzle: Exclusion 5) | 78.1 | 26 | – | – | – | –
CGAGCUUUUUGCUCGUCUUACAUGAGGAUCACCCAUGUCAUACAGAUAGAUAUACGAAAAGUAUAUCUAUCUGUAUG [Mod of sellena's -59.4, -80.7 kcal, A 10%] (Eterna round: R97, puzzle: Sensor, turn-off variant 1) | 23.3 | 27.5 | – | – | – | –
CCGGAUAUGCAGGAUAUCGAAUCGGAAACGAUUCGAGAAGGGUAUACAUGAGGAUCACCCAUGUGUCCUACCGG [Mat - Exclusion 6 - Eli Mod - D87] (puzzle: Exclusion 6) | – | – | – | 19.4 | – | –
GCAGGUUAAGUCAGGAUAUACCUAUGGAUACAUAGGUAGAAGGGACAUGAGGAUCACCCAUGUGACUCACCUGC [Fiskers BMX 4 - 59] (puzzle: Brourd's mod of Exclusion 4) | – | – | – | 25.1 | – | –
GCGUAGUAUGUAGGAUAUCGGUCAGUUUCUGAUCGAGAAGGACAUGAGGAUCACCCAUGUAAAACGACCGCUUUGUGGUUACGC [JL ENG1 3.58] (Eterna round: R96, puzzle: Exclusion NG 1) | 42.7 | 19.2 | – | – | – | 15.9
UGAUCUAGCGGAGGAUAUACAUGAGGAUCACCCAUGUAGAUGAGUGUACCGUAGUGCACUAUUGUGUAGAAGGCCGCUAGAUCU [JL ENG2 3.63] (Eterna round: R96, puzzle: Exclusion NG 2) | 69.9 | 19.8 | – | – | – | 13.7
CCCGUGUAAGGAUAUCGUUCACUUGACAAAAGUCAAGUGAACGAGAAGGUACAUGAGGAUCACCCAUGUACGGG [-33.8, -33.4 kcal, A 32%] (Eterna round: R97, puzzle: Exclusion 4) | 418 | 571 | – | – | – | –
ACAUGUCUUGUAGGAUAUAGUUGACAUGAGGAUCACCCAUGUUGAUUCAUGUCUAUCGAAAGGGACUAGAAGGACGAGAAUAUG [Ex NG2 #16] (Eterna round: R96, puzzle: Exclusion NG 2) | 87.5 | 32.2 | – | – | – | 20
GUCCGACAUGAGGAUCACCCAUGUGAGGAUAUACGAUUAGCUGCUAGGUAGUUAGUAUGUAGAAGGUGCAUGAA [EX1 #74] (Eterna round: R97, puzzle: Exclusion 1) | 30.1 | 17.5 | – | – | – | –
GUGCGGUGAGGAUAUACGUAGGUGAAAAUCUGUGUGCUCCUACAUGAGGAUCACCCAUGUAGAAGGCAUGUCAC [LRO-Excl2-15] (puzzle: Exclusion 2) | – | – | – | 14.7 | – | –

Sequence | apparent KD of MS2 coat protein (input ligand: FMN 200 uM) [nM] | apparent KD of MS2 coat protein (input ligand: none) [nM] | apparent KD of MS2 coat protein [1] [nM] | apparent KD of MS2 coat protein [2] [nM] | apparent KD of MS2 coat protein [3] [nM] | apparent KD of MS2 coat protein [4] [nM]
UUUUAACAUGAGGAUCACCCAUGUGAGGAUAUCGAAAUUUAUAUUUAUAUUAAUUAUACGAGAAGGCACAUUUU [JMF 86] (puzzle: Exclusion 1) | – | – | – | 65.5 | – | –
GAGAAAUUAUAGGAUAUCGAAAGUAUAAUUUAACGAGAAGGAUGAACAUGAGGAUCACCCAUGUGGUAUCAUGG [JL-ex6-3.10] (puzzle: Exclusion 6) | – | – | 283 | 88.2 | 297 | –
AAAUUACAAGCAAGAUCCUACAUGAGGAUCACCCAUGUGCUCGUCUUAUAAAGUACUAUCACGAAAGUGAUAGUACA [Mat - Sensor v3 - turn-off var 1 - Eli Mod - D58] (puzzle: Sensor v3, turn-off variant 1) | – | – | 256 | 304 | 329 | –
UUCAUGUAAGGAUAUACCUCGAGCUGAUGAGAGUCUCAAAUGUAGAAGGUACAUGAGGAUCACCCAUGUACAGG [Eternabot (Original) Solution 5] (Eterna round: R97, puzzle: Exclusion 4) | 65.2 | 42 | – | – | – | –
GCGGAGUCAGGAUAUUGAAUUUAACGUACCAAUAAGGUACGCGAGAAGGGACAUGAGGAUCACCCAUGUACCGC [Mat - Exclusion 4 - Eli Mod - D35] (Eterna round: R97, puzzle: Exclusion 4) | 16.5 | 17.3 | – | – | – | –
GGCGGACAUGAGGAUCACCCAUGUCAGGAUAUUAGGCGAUCGUCGAAAGACGAUAGCCUGAGAAGGGACGCGCC [Eli x1 4.13] (Eterna round: R97, puzzle: Exclusion 1) | 20.6 | 17.7 | – | – | – | –
UUUAGUUCAGGAUAUGUAGAUUUUAACAUGAGGAUCACCCAUGUAGAUCCUGAAUUAACUACAGAAGGGAGCAUUU [Mod of Brourd 16 - Jieux - Exclusion 5] (Eterna round: R97, puzzle: Exclusion 5) | 33.6 | 18.4 | – | – | – | –
GGAUCGAGUGUGAGGAUAUGCAGGUCCUUGGAUCUGCAGAAGGCACAUGAGGAUCACCCAUGUGGAAACGGUCC [Mat - Exclusion 4 - JL Mod - D76] (puzzle: Brourd's mod of Exclusion 4) | – | – | – | 58.9 | – | –
UUCCUCAUAACAUGAGGAUCACCCAUGUAUUAAUAGAUAACUGAGGAUAUACUAAUAAUGUUUAUGUAGAAGGCAGAUACAGAU [JR_ExcNG3_Sub014] (Eterna round: R96, puzzle: Exclusion NG 3) | – | – | – | – | – | 40
AUUAAACAUGUAGGAUAUGCGUGGCGAAGCUAUGCAGAAGGACAUGAGGAUCACCCAUGUAAAAGCGUCUGCGUACAGAUGCAA [Mat - Exclusion NG 1 - Mod of JL - D84] (Eterna round: R96, puzzle: Exclusion NG 1) | 468 | 38.9 | – | – | – | 28
GAAUAGCAAGCGAGAUCCCACAUGAGGAUCACCCAUGUGCUCGUCUUAUAAAGUACUGUGACGAGAGUCACGGUACA [Mat - Sensor, turn-off var - Eli Mod - D14] (Eterna round: R97, puzzle: Sensor, turn-off variant 1) | 14.3 | 16.1 | – | – | – | –
UUUUUUGUAGUGAGGAUAUCGUUGAGGAUGUGGAUCGAGAAGGCACAUGAGGAUCACCCAUGUUAGAUGUGGUU [JR_BMOE4_Sub083] (Eterna round: R96, puzzle: Brourd's mod of Exclusion 4) | 363 | 166 | – | – | – | 134
UAACAGCGAGGAUAUACAUGAGGAUCACCCAUGUACGGGUCCGGGUUUUCGUCCAAAAGUAGAAGGCGCAAUAA [Laongeedte] (puzzle: Exclusion 3) | – | – | 177 | 38.4 | 41.4 | –
CCGCUCCGUGUAGGAUAUCGGCGUACCCUGCGCCGAGAAGGACAUGAGGAUCACCCAUGUAUGUUAUUAUCACGCGUGGCGCAC [Design 74] (Eterna round: R96, puzzle: Exclusion NG 1) | 19.8 | 20.2 | – | – | – | 14.6
UACCGUGGUUAGGAUAUACCGUGACACCGCUGAGUAGAAGGAACCACAUGAGGAUCACCCAUGUAAUAUGAAGG [Eternabot (L2) Solution 94] (Eterna round: R97, puzzle: Exclusion 6) | 159 | 51.9 | – | – | – | –
CUCGCUGUGGUUAGGAUAUGUGGGUUAGCAGGCGCAUAGAAGGAACAUGAGGAUCACCCAUGUGGGUUGGUGCG [Eternabot (L2) Solution 88] (Eterna round: R97, puzzle: Brourd's mod of Exclusion 4) | 39.4 | 62.7 | – | – | – | –
CGGUGCUUCUGGAAACAUGAGGAUCACCCAUGUUGAGUUAGCGAGGAUAUCGGUAACACUUGUUAUGAGAAGGCGCGAACCAGA [Ex NG3 #35] (Eterna round: R96, puzzle: Exclusion NG 3) | 13.6 | 19.4 | – | – | – | 14.6
